Values quoted from earlier work in patent US7468440B2, “Malonamides and malonamide derivatives as modulators of chemokine receptor activity” (Bristol-Myers Squibb Company, priority 2003, dated 2008).

Tested on: MCP-1 expression
Settings: human multiple sclerosis, effective therapy

B1: interferon b-1b: interferon b-1b, effective therapy in human multiple sclerosis (protein, UniProt P01574 22-187, looked up, variant C17S)
Interferon beta: MSYNLLGFLQRSSNFQSQKLLWQLNGRLEYCLKDRMNFDIPEEIKQLQQFQKEDAALTIYEMLQNIFAIFRQDSSSTGWNETIVENLLANVYHQINHLKTVLEEKLEKEDFTRGKLMSSLHLKRYYGRILHYLKAKEYSHCAWTIVRVEILRNFYFINRLTGYLRN
modifications: interferon beta-1b
effect on MCP-1 expression in peripheral blood mononuclear cells: reduces MCP-1 expression
